Measured values reported in patent publication US20260242419A1, “A CYCLIC PEPTIDE FOR TRAPPING INTERLEUKIN-1 BETA” (Merck Sharp & Dohme LLC, priority 2023, published 2026).
Starred links: 1 amine or outer side, 2 acyl side, 3 side chain; linkers in the order of their positions; H or OH if unused. Non-standard residues stand in square brackets, D forms with d. 3AzaTyrEtNAc = (2S)-3-[6-(2-acetamidoethoxy)-3-pyridyl]-2-amino-propanoic acid, CC(=O)NCCOc1ccc(C[C@H](N[*:1])C(=O)[*:2])cn1; TyrEtNAc = (2S)-3-[4-(2-acetamidoethoxy)phenyl]-2-amino-propanoic acid, CC(=O)NCCOc1ccc(C[C@H](N[*:1])C(=O)[*:2])cc1; dPro(4R-(4-pyridylmethyl)) = O=C(O)[C@H]1C[C@@H](Cc2ccncc2)CN1; Ala(piperidin-4-yl) = O=C([C@H](CC1CCN([*:3])CC1)N[*:1])[*:2]; Trp(βS-Me,4-F) = C[C@@H](c1c[nH]c2cccc(F)c12)[C@H](N)C(=O)O; 3Aminoazetidine3carboxyl = O=C(C1(N[*:1])CN([*:3])C1)[*:2]; Bip(4'-COOH) = N[C@@H](Cc1ccc(-c2ccc(C(=O)O)cc2)cc1)C(=O)O; Ala(1-bicyclo(1.1.1)pentyl) = N[C@@H](CC12CC(C1)C2)C(=O)O; dPro(4R-Bzl(4-F)) = O=C(O)[C@H]1C[C@@H](Cc2ccc(F)cc2)CN1; Ala(piperazin-1-yl) = N[C@@H](CN1CCNCC1)C(=O)O; Ala(pyrimidin-5-yl) = N[C@@H](Cc1cncnc1)C(=O)O; Phe(4-COOH) = N[C@@H](Cc1ccc(C(=O)O)cc1)C(=O)O; Pro(cis-4-F) = O=C(O)[C@@H]1C[C@H](F)CN1; 4Pal = N[C@@H](Cc1ccncc1)C(=O)O; d(αMeS) = C[C@@](N)(CO)C(=O)O; αMeS = C[C@](N)(CO)C(=O)O; Dab = NCC[C@H](N)C(=O)O; Aib = CC(C)(N)C(=O)O

B1: SEQ ID NO: 19 (peptide)
peptide: cyclo([Bip(4'-COOH)][4Pal][Phe(4-COOH)]G[Pro(cis-4-F)][Trp(βS-Me,4-F)][d(αMeS)]EW[Aib][Ala(pyrimidin-5-yl)]Q[Dab]G[dPro(4R-Bzl(4-F))])
SMILES: C[C@@H](c1c[nH]c2cccc(F)c12)[C@@H]1NC(=O)[C@@H]2C[C@H](F)CN2C(=O)CNC(=O)[C@H](Cc2ccc(C(=O)O)cc2)NC(=O)[C@H](Cc2ccncc2)NC(=O)[C@H](Cc2ccc(-c3ccc(C(=O)O)cc3)cc2)NC(=O)[C@H]2C[C@@H](Cc3ccc(F)cc3)CN2C(=O)CNC(=O)[C@H](CCN)NC(=O)[C@H](CCC(N)=O)NC(=O)[C@H](Cc2cncnc2)NC(=O)C(C)(C)NC(=O)[C@H](Cc2c[nH]c3ccccc23)NC(=O)[C@H](CCC(=O)O)NC(=O)[C@@](C)(CO)NC1=O
B2: SEQ ID NO: 18 (peptide)
peptide: cyclo([Bip(4'-COOH)][4Pal][Phe(4-COOH)]G[Pro(cis-4-F)][Trp(βS-Me,4-F)][Aib]EW[αMeS][Ala(pyrimidin-5-yl)]Q[Dab]G[dPro(4R-Bzl(4-F))])
SMILES: C[C@@H](c1c[nH]c2cccc(F)c12)[C@@H]1NC(=O)[C@@H]2C[C@H](F)CN2C(=O)CNC(=O)[C@H](Cc2ccc(C(=O)O)cc2)NC(=O)[C@H](Cc2ccncc2)NC(=O)[C@H](Cc2ccc(-c3ccc(C(=O)O)cc3)cc2)NC(=O)[C@H]2C[C@@H](Cc3ccc(F)cc3)CN2C(=O)CNC(=O)[C@H](CCN)NC(=O)[C@H](CCC(N)=O)NC(=O)[C@H](Cc2cncnc2)NC(=O)[C@](C)(CO)NC(=O)[C@H](Cc2c[nH]c3ccccc23)NC(=O)[C@H](CCC(=O)O)NC(=O)C(C)(C)NC1=O
B3: SEQ ID NO: 15 (peptide)
peptide: cyclo([Bip(4'-COOH)][4Pal][Phe(4-COOH)]G[Pro(cis-4-F)][Trp(βS-Me,4-F)][Aib]EW[Aib][4Pal]Q[Dab]G[dPro(4R-(4-pyridylmethyl))])
SMILES: C[C@@H](c1c[nH]c2cccc(F)c12)[C@@H]1NC(=O)[C@@H]2C[C@H](F)CN2C(=O)CNC(=O)[C@H](Cc2ccc(C(=O)O)cc2)NC(=O)[C@H](Cc2ccncc2)NC(=O)[C@H](Cc2ccc(-c3ccc(C(=O)O)cc3)cc2)NC(=O)[C@H]2C[C@@H](Cc3ccncc3)CN2C(=O)CNC(=O)[C@H](CCN)NC(=O)[C@H](CCC(N)=O)NC(=O)[C@H](Cc2ccncc2)NC(=O)C(C)(C)NC(=O)[C@H](Cc2c[nH]c3ccccc23)NC(=O)[C@H](CCC(=O)O)NC(=O)C(C)(C)NC1=O
B4: SEQ ID NO: 2 (peptide)
peptide: cyclo([Bip(4'-COOH)][4Pal][Phe(4-COOH)]G[Pro(cis-4-F)][Trp(βS-Me,4-F)][Aib]EW[Aib][4Pal]Q[Dab]G[dPro(4R-Bzl(4-F))])
SMILES: C[C@@H](c1c[nH]c2cccc(F)c12)[C@@H]1NC(=O)[C@@H]2C[C@H](F)CN2C(=O)CNC(=O)[C@H](Cc2ccc(C(=O)O)cc2)NC(=O)[C@H](Cc2ccncc2)NC(=O)[C@H](Cc2ccc(-c3ccc(C(=O)O)cc3)cc2)NC(=O)[C@H]2C[C@@H](Cc3ccc(F)cc3)CN2C(=O)CNC(=O)[C@H](CCN)NC(=O)[C@H](CCC(N)=O)NC(=O)[C@H](Cc2ccncc2)NC(=O)C(C)(C)NC(=O)[C@H](Cc2c[nH]c3ccccc23)NC(=O)[C@H](CCC(=O)O)NC(=O)C(C)(C)NC1=O
B5: SEQ ID NO: 12 (peptide)
peptide: cyclo([3AzaTyrEtNAc][4Pal][Phe(4-COOH)]G[Pro(cis-4-F)][Trp(βS-Me,4-F)][Aib]EW[Aib][Ala(pyrimidin-5-yl)]Q[Dab]G[dPro(4R-Bzl(4-F))])
SMILES: CC(=O)NCCOc1ccc(C[C@@H]2NC(=O)[C@H]3C[C@@H](Cc4ccc(F)cc4)CN3C(=O)CNC(=O)[C@H](CCN)NC(=O)[C@H](CCC(N)=O)NC(=O)[C@H](Cc3cncnc3)NC(=O)C(C)(C)NC(=O)[C@H](Cc3c[nH]c4ccccc34)NC(=O)[C@H](CCC(=O)O)NC(=O)C(C)(C)NC(=O)[C@H]([C@@H](C)c3c[nH]c4cccc(F)c34)NC(=O)[C@@H]3C[C@H](F)CN3C(=O)CNC(=O)[C@H](Cc3ccc(C(=O)O)cc3)NC(=O)[C@H](Cc3ccncc3)NC2=O)cn1
B6: SEQ ID NO: 119 (peptide)
peptide: cyclo([Bip(4'-COOH)][4Pal][Phe(4-COOH)]G[Pro(cis-4-F)][Trp(βS-Me,4-F)][Aib]EW[Aib][Ala(piperidin-4-yl)]Q[Dab]G[dPro(4R-Bzl(4-F))])
SMILES: C[C@@H](c1c[nH]c2cccc(F)c12)[C@@H]1NC(=O)[C@@H]2C[C@H](F)CN2C(=O)CNC(=O)[C@H](Cc2ccc(C(=O)O)cc2)NC(=O)[C@H](Cc2ccncc2)NC(=O)[C@H](Cc2ccc(-c3ccc(C(=O)O)cc3)cc2)NC(=O)[C@H]2C[C@@H](Cc3ccc(F)cc3)CN2C(=O)CNC(=O)[C@H](CCN)NC(=O)[C@H](CCC(N)=O)NC(=O)[C@H](CC2CCNCC2)NC(=O)C(C)(C)NC(=O)[C@H](Cc2c[nH]c3ccccc23)NC(=O)[C@H](CCC(=O)O)NC(=O)C(C)(C)NC1=O
B7: SEQ ID NO: 120 (peptide)
peptide: cyclo([Bip(4'-COOH)][4Pal][Phe(4-COOH)]G[Pro(cis-4-F)][Trp(βS-Me,4-F)][Aib]EW[Aib][Ala(piperazin-1-yl)]Q[Dab]G[dPro(4R-Bzl(4-F))])
SMILES: C[C@@H](c1c[nH]c2cccc(F)c12)[C@@H]1NC(=O)[C@@H]2C[C@H](F)CN2C(=O)CNC(=O)[C@H](Cc2ccc(C(=O)O)cc2)NC(=O)[C@H](Cc2ccncc2)NC(=O)[C@H](Cc2ccc(-c3ccc(C(=O)O)cc3)cc2)NC(=O)[C@H]2C[C@@H](Cc3ccc(F)cc3)CN2C(=O)CNC(=O)[C@H](CCN)NC(=O)[C@H](CCC(N)=O)NC(=O)[C@H](CN2CCNCC2)NC(=O)C(C)(C)NC(=O)[C@H](Cc2c[nH]c3ccccc23)NC(=O)[C@H](CCC(=O)O)NC(=O)C(C)(C)NC1=O
B8: SEQ ID NO: 14 (peptide)
peptide: cyclo([Bip(4'-COOH)][4Pal][Phe(4-COOH)]G[Pro(cis-4-F)][Trp(βS-Me,4-F)][Aib]EW[Aib][Ala(pyrimidin-5-yl)]Q[Dab]G[dPro(4R-(4-pyridylmethyl))])
SMILES: C[C@@H](c1c[nH]c2cccc(F)c12)[C@@H]1NC(=O)[C@@H]2C[C@H](F)CN2C(=O)CNC(=O)[C@H](Cc2ccc(C(=O)O)cc2)NC(=O)[C@H](Cc2ccncc2)NC(=O)[C@H](Cc2ccc(-c3ccc(C(=O)O)cc3)cc2)NC(=O)[C@H]2C[C@@H](Cc3ccncc3)CN2C(=O)CNC(=O)[C@H](CCN)NC(=O)[C@H](CCC(N)=O)NC(=O)[C@H](Cc2cncnc2)NC(=O)C(C)(C)NC(=O)[C@H](Cc2c[nH]c3ccccc23)NC(=O)[C@H](CCC(=O)O)NC(=O)C(C)(C)NC1=O
B9: SEQ ID NO: 13 (peptide)
peptide: cyclo([Bip(4'-COOH)][Ala(1-bicyclo(1.1.1)pentyl)][Phe(4-COOH)]G[Pro(cis-4-F)][Trp(βS-Me,4-F)][Aib]EW[Aib][Ala(pyrimidin-5-yl)]Q[Dab]G[dPro(4R-Bzl(4-F))])
SMILES: C[C@@H](c1c[nH]c2cccc(F)c12)[C@@H]1NC(=O)[C@@H]2C[C@H](F)CN2C(=O)CNC(=O)[C@H](Cc2ccc(C(=O)O)cc2)NC(=O)[C@H](CC23CC(C2)C3)NC(=O)[C@H](Cc2ccc(-c3ccc(C(=O)O)cc3)cc2)NC(=O)[C@H]2C[C@@H](Cc3ccc(F)cc3)CN2C(=O)CNC(=O)[C@H](CCN)NC(=O)[C@H](CCC(N)=O)NC(=O)[C@H](Cc2cncnc2)NC(=O)C(C)(C)NC(=O)[C@H](Cc2c[nH]c3ccccc23)NC(=O)[C@H](CCC(=O)O)NC(=O)C(C)(C)NC1=O
B10: SEQ ID NO: 21 (peptide)
peptide: cyclo([Bip(4'-COOH)][4Pal][Phe(4-COOH)]G[Pro(cis-4-F)][Trp(βS-Me,4-F)][Aib]EW[3Aminoazetidine3carboxyl][Ala(pyrimidin-5-yl)]Q[Dab]G[dPro(4R-Bzl(4-F))])
SMILES: C[C@@H](c1c[nH]c2cccc(F)c12)[C@@H]1NC(=O)[C@@H]2C[C@H](F)CN2C(=O)CNC(=O)[C@H](Cc2ccc(C(=O)O)cc2)NC(=O)[C@H](Cc2ccncc2)NC(=O)[C@H](Cc2ccc(-c3ccc(C(=O)O)cc3)cc2)NC(=O)[C@H]2C[C@@H](Cc3ccc(F)cc3)CN2C(=O)CNC(=O)[C@H](CCN)NC(=O)[C@H](CCC(N)=O)NC(=O)[C@H](Cc2cncnc2)NC(=O)C2(CNC2)NC(=O)[C@H](Cc2c[nH]c3ccccc23)NC(=O)[C@H](CCC(=O)O)NC(=O)C(C)(C)NC1=O
B11: SEQ ID NO: 17 (peptide)
peptide: cyclo([Bip(4'-COOH)][4Pal][Phe(4-COOH)]G[Pro(cis-4-F)][Trp(βS-Me,4-F)][Aib]DW[Aib][Ala(pyrimidin-5-yl)]Q[Dab]G[dPro(4R-Bzl(4-F))])
SMILES: C[C@@H](c1c[nH]c2cccc(F)c12)[C@@H]1NC(=O)[C@@H]2C[C@H](F)CN2C(=O)CNC(=O)[C@H](Cc2ccc(C(=O)O)cc2)NC(=O)[C@H](Cc2ccncc2)NC(=O)[C@H](Cc2ccc(-c3ccc(C(=O)O)cc3)cc2)NC(=O)[C@H]2C[C@@H](Cc3ccc(F)cc3)CN2C(=O)CNC(=O)[C@H](CCN)NC(=O)[C@H](CCC(N)=O)NC(=O)[C@H](Cc2cncnc2)NC(=O)C(C)(C)NC(=O)[C@H](Cc2c[nH]c3ccccc23)NC(=O)[C@H](CC(=O)O)NC(=O)C(C)(C)NC1=O

Biological target: Recombinant human IL-1β (BioLegend 579404) (human, UniProt P01584 117-269)
Assay: cell-based or functional assay

Row | MRC5 IC50 [nM] | Binder
1 | 0.021 | B1
2 | 0.027 | B2
3 | 0.027 | cyclo([Bip(4'-COOH)][4Pal][Phe(4-COOH)]G[Pro(cis-4-F)][Trp(βS-Me,4-F)][αMeS]EW[Aib][Ala(pyrimidin-5-yl)]Q[Dab]G[dPro(4R-Bzl(4-F))]) [SEQ ID NO: 22]
4 | 0.035 | B3
5 | 0.023 | B4
6 | 0.072 | B5
7 | 0.016 | B6
8 | 0.014 | B7
9 | 0.035 | B8
10 | 0.022 | B9
11 | 0.04 | B10
12 | 0.051 | cyclo([TyrEtNAc][4Pal][Phe(4-COOH)]G[Pro(cis-4-F)][Trp(βS-Me,4-F)][Aib]SW[Aib][Ala(pyrimidin-5-yl)]Q[Dab]G[dPro(4R-Bzl(4-F))]) [SEQ ID NO: 16]
13 | 0.062 | cyclo([Bip(4'-COOH)][4Pal][Phe(4-COOH)]G[Pro(cis-4-F)][Trp(βS-Me,4-F)][3Aminoazetidine3carboxyl]EW[Aib][Ala(pyrimidin-5-yl)]Q[Dab]G[dPro(4R-Bzl(4-F))]) [SEQ ID NO: 20]
14 | 0.029 | B11
